Molecular target: rat perilipin A (62-kDa phosphoprotein of unstimulated rat adipocytes; 65/67-kDa forms after stimulation) (rat)
Conditions: scale: ratio to 1

Work on cAMP-dependent protein kinase (enzyme) yielded a 32P incorporation and shift in SDS-PAGE from 62-kDa to 65/67-kDa in isoproterenol-stimulated rat adipocytes of 5.
